This is an account of results in publication PMC8986097, “SUMO-mediated recruitment allows timely function of the Yen1 nuclease in mitotic cells” (PLoS Genetics, 2022).

This assay addresses GST-Smt3 (S. cerevisiae, UniProt Q12306 1-101 = SUMO). Briefly: cell-based or functional assay.

Chain of GST-Smt3 (Q12306 whole entry): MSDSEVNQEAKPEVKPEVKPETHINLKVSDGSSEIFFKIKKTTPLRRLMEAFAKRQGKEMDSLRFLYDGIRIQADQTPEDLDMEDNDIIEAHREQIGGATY

B1: Yen1 SIM1-2ΔΔ (D635A D636A D637A V675A E677A), HA-tagged, purified (natural protein, S. cerevisiae, UniProt P40028 1-759, looked up)
chain: MGVSQIWEFLKPYLQDSRIPLRKFVIDFNKSQKRAPRIAIDAYGWLFECGFIQNIDISARSRSRSRSPTRSPRDSDIDSSQEYYGSRSYTTTGKAVINFISRLKELLSLNVEFLLVFDGVMKPSFKRKFNHEQNATTCDDEKEYYSSWEQHVKNHEVYGNCKGLLAPSDPEFISLVRKLLDLMNISYVIACGEGEAQCVWLQVSGAVDFILSNDSDTLVFGGEKILKNYSKFYDDFGPSSITSHSPSRHHDSKESFVTVIDLPKINKVAGKKFDRLSLLFFSVLLGADYNRGVKGLGKNKSLQLAQCEDPNFSMEFYDIFKDFNLEDLTSESLRKSRYRLFQKRLYLYCKDHSVELFGRNYPVLLNQGSFEGWPSTVAIMHYFHPIVQPYFDEEVLSDKYINMAGNGHYRNLNFNELKYFLQSLNLPQISSFDKWFHDSMHEMFLLREFLSIDESDNIGKGNMRITEEKIMNIDGGKFQIPCFKIRYTTFLPNIPISSQSPLKRSNSPSRSKSPTRRQMDIMEHPNSLWLPKYLIPQSHPLVIQYYETQQLIQKEKEKKGKKSNKSRLPQKNNLDEFLRKHTSPIKSIGKVGESRKEILEPVRKRLFVDTDEDTSLEEIPAPTRLTTVDEHSDNAAASLIFVDEITNSQSVLDSSPGKRIRDLTQDEQVDVWKDAIAISPIKKSRTTNAEKNPPESGLKSRSSITINARLQGTKMLPPNLTAPRLEREHSSVLDQLVTDAQDTVDRFVACDSDSSSTIE
For B1, the “fraction of SUMOylated Yen1 recovered by denaturing Ni-NTA pull-down of 6xHis-Smt3 from cells grown in 0.3% MMS, relative to wild-type Yen1” value was determined as 1%.

B2: Yen1 SIM1Δ (D635A D636A D637A), HA-tagged, purified (natural protein, S. cerevisiae, UniProt P40028 1-759, looked up)
chain: MGVSQIWEFLKPYLQDSRIPLRKFVIDFNKSQKRAPRIAIDAYGWLFECGFIQNIDISARSRSRSRSPTRSPRDSDIDSSQEYYGSRSYTTTGKAVINFISRLKELLSLNVEFLLVFDGVMKPSFKRKFNHEQNATTCDDEKEYYSSWEQHVKNHEVYGNCKGLLAPSDPEFISLVRKLLDLMNISYVIACGEGEAQCVWLQVSGAVDFILSNDSDTLVFGGEKILKNYSKFYDDFGPSSITSHSPSRHHDSKESFVTVIDLPKINKVAGKKFDRLSLLFFSVLLGADYNRGVKGLGKNKSLQLAQCEDPNFSMEFYDIFKDFNLEDLTSESLRKSRYRLFQKRLYLYCKDHSVELFGRNYPVLLNQGSFEGWPSTVAIMHYFHPIVQPYFDEEVLSDKYINMAGNGHYRNLNFNELKYFLQSLNLPQISSFDKWFHDSMHEMFLLREFLSIDESDNIGKGNMRITEEKIMNIDGGKFQIPCFKIRYTTFLPNIPISSQSPLKRSNSPSRSKSPTRRQMDIMEHPNSLWLPKYLIPQSHPLVIQYYETQQLIQKEKEKKGKKSNKSRLPQKNNLDEFLRKHTSPIKSIGKVGESRKEILEPVRKRLFVDTDEDTSLEEIPAPTRLTTVDEHSDNAAASLIFVDEITNSQSVLDSSPGKRIRDLTQDEQVDVWKDVIEISPIKKSRTTNAEKNPPESGLKSRSSITINARLQGTKMLPPNLTAPRLEREHSSVLDQLVTDAQDTVDRFVACDSDSSSTIE
Regarding B2, the “fraction of SUMOylated Yen1 recovered by denaturing Ni-NTA pull-down of 6xHis-Smt3 from cells grown in 0.3% MMS, relative to wild-type Yen1” value worked out at 5%.

B3: Yen1 SIM2Δ (V675A E677A), HA-tagged, purified (natural protein, S. cerevisiae, UniProt P40028 1-759, looked up)
chain: MGVSQIWEFLKPYLQDSRIPLRKFVIDFNKSQKRAPRIAIDAYGWLFECGFIQNIDISARSRSRSRSPTRSPRDSDIDSSQEYYGSRSYTTTGKAVINFISRLKELLSLNVEFLLVFDGVMKPSFKRKFNHEQNATTCDDEKEYYSSWEQHVKNHEVYGNCKGLLAPSDPEFISLVRKLLDLMNISYVIACGEGEAQCVWLQVSGAVDFILSNDSDTLVFGGEKILKNYSKFYDDFGPSSITSHSPSRHHDSKESFVTVIDLPKINKVAGKKFDRLSLLFFSVLLGADYNRGVKGLGKNKSLQLAQCEDPNFSMEFYDIFKDFNLEDLTSESLRKSRYRLFQKRLYLYCKDHSVELFGRNYPVLLNQGSFEGWPSTVAIMHYFHPIVQPYFDEEVLSDKYINMAGNGHYRNLNFNELKYFLQSLNLPQISSFDKWFHDSMHEMFLLREFLSIDESDNIGKGNMRITEEKIMNIDGGKFQIPCFKIRYTTFLPNIPISSQSPLKRSNSPSRSKSPTRRQMDIMEHPNSLWLPKYLIPQSHPLVIQYYETQQLIQKEKEKKGKKSNKSRLPQKNNLDEFLRKHTSPIKSIGKVGESRKEILEPVRKRLFVDTDEDTSLEEIPAPTRLTTVDEHSDNDDDSLIFVDEITNSQSVLDSSPGKRIRDLTQDEQVDVWKDAIAISPIKKSRTTNAEKNPPESGLKSRSSITINARLQGTKMLPPNLTAPRLEREHSSVLDQLVTDAQDTVDRFVACDSDSSSTIE
B3: the “fraction of SUMOylated Yen1 recovered by denaturing Ni-NTA pull-down of 6xHis-Smt3 from cells grown in 0.3% MMS, relative to wild-type Yen1” value was approximately 20%.
